Test results: patent US20260167721A1 (ABLEXIS, published 2026)
Values belong to the binder of their own block, whether it stands above or below them.

Tests used:
[1] = biological target: T1, recombinant human CD3 epsilon/delta heterodimer (human, UniProt P07766 23-126; P04234 22-105); assay: Octet BLI, mAb on FAB2G sensor, hCD3 E/D 200-50 nM; R^2 0.96
T1 construct: Recombinant protein in solution (200-50 nM) in the Octet assay; also called hCD3 E/D; human CD3E/D
Experimental: Samples were evaluated by flow cytometry analysis against Jurkat and human Pan-T cells (FIG. 1B) as well as by Octet against recombinant human CD3 proteins to evaluate apparent affinities and binding off-rates (Table 6, infra).

[2] = biological target: T2, recombinant human CD3 epsilon/gamma heterodimer (human, UniProt P07766 23-126; P09693 23-116); assay: Octet BLI, mAb on FAB2G sensor, hCD3 E/G 200-50 nM; R^2 0.34
T2 construct: Recombinant protein in solution (200-50 nM) in the Octet assay; also called hCD3 E/G

recombinant CD3 proteins [3] = biological target: T3, recombinant CD3 proteins (UniProt P07766 23-126); assay: Octet BLI, recombinant CD3; Full R^2 0.984
T3 construct: elsewhere it uses human CD3 E/D and E/G heterodimers

recombinant CD3 proteins [4] = biological target: T3, recombinant CD3 proteins; assay: Octet BLI, recombinant CD3; Full R^2 0.986
recombinant CD3 proteins [5] = biological target: T3, recombinant CD3 proteins; assay: Octet BLI, recombinant CD3; Full R^2 0.989
recombinant CD3 proteins [6] = biological target: T3, recombinant CD3 proteins; assay: Octet BLI, recombinant CD3; Full R^2 0.985

T1 sequence (P07766 23-126, stated change not applied, chain 1 of 2): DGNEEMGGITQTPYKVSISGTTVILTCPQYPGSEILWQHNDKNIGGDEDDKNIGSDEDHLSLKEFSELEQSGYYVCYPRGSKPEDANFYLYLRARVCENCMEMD
T1 sequence (P04234 22-105, stated change not applied, chain 2 of 2): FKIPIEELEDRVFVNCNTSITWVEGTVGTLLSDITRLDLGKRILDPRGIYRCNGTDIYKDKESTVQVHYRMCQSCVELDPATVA
T3 sequence (P07766 23-126): as the sequence (P07766 23-126, stated change not applied, chain 1 of 2) above
T2 sequence (P07766 23-126, chain 1 of 2): as the sequence (P07766 23-126, stated change not applied, chain 1 of 2) above
T2 sequence (P09693 23-116, chain 2 of 2): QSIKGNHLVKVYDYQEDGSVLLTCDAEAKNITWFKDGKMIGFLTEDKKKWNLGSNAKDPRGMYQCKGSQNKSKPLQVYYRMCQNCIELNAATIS

Kd [1]: 23.4 nM
Response [1]: 0.08
koff [1]: 0.000728 s⁻¹
kon [1]: 31200 M⁻¹ s⁻¹
Kd [2]: < 0.001 nM
koff [2]: < 1e-07 s⁻¹
kon [2]: 26700 M⁻¹ s⁻¹
B1: ABL-CD3-13 (antibody, V domains shown)
VH: EVQLVESGGGLVQPGGSLRLSCAASGFTFSNYWMSWVRQAPGKGLEWVANIKEDGSEKYYVDSVKGRFTISRDNAKNSLYLQMNSLTAEDTSVYYCARERRTGYFDYWGQGTLVTVSS
VL: DIQMTQSPSTLSASVGDRVTITCRASQSISNWLAWYQQKPGKAPNLLIYKASSLESGVPSRFSGSGSGTEFTLTISSLQPDDFANYYCQQYKSYSWTFGQGTKVEIK
notes: Chimeric hybridoma mAb: human V, CH1, upper hinge; mouse middle hinge, CH2, CH3

Kd (recombinant CD3 proteins [3]): 16.6 nM
koff (recombinant CD3 proteins [3]): 0.00554 s⁻¹
kon (recombinant CD3 proteins [3]): 335000 M⁻¹ s⁻¹
B2: CD3 × CD33-BspAb117 (bispecific antibody)
chain 1: NFMLTQPHSVSESPGKTVTISCTRSSGSIASNYVQWYQQRPGSSPTSVIYEDNQRPSGVPDRFSGSIDSSSNSASLTISGLKTEDEADYYCQSYDRSNRVFGCGTKLTVLGGGGSGGGGSGGGGSGGGGSEVQLVESGGGLVKPGGSLRLSCAASGLTFSTYSMNWVRQAPGKCLEWVSSISSSGSYVYYADSVKGRFTMSRDNAKNSLYLQMNSLRAEDTAVYYCARERRELLFDYWGQGTLVTVSSDKTHTCPPCPAPEFEGGPSVFLFPPKPKDTLMISRTPEVTCVVVDVSHEDPEVKFNWYVDGVEVHNAKTKPREEQYNSTYRVVSVLTVLHQDWLNGKEYKCKVSNKALPASIEKTISKAKGQPREPQVYTLPPCREEMTKNQVSLWCLVKGFYPSDIAVEWESNGQPENNYKTTPPVLDSDGSFFLYSKLTVDKSRWQQGNVFSCSVMHEALHNHYTQKSLSLSPGK
chain 2: EVQLVQSGAEVKKPGSSVKVSCKASGYTITDSNIHWVRQAPGQSLEWIGYIYPYNGGTDYNQKFKNRATLTVDNPTNTAYMELSSLRSEDTAFYYCVNGNPWLAYWGQGTLVTVSSASTKGPSVFPLAPSSKSTSGGTAALGCLVKDYFPEPVTVSWNSGALTSGVHTFPAVLQSSGLYSLSSVVTVPSSSLGTQTYICNVNHKPSNTKVDKRVEPKSCDKTHTCPPCPAPEFEGGPSVFLFPPKPKDTLMISRTPEVTCVVVDVSHEDPEVKFNWYVDGVEVHNAKTKPREEQYNSTYRVVSVLTVLHQDWLNGKEYKCKVSNKALPASIEKTISKAKGQPREPQVCTLPPSREEMTKNQVSLSCAVKGFYPSDIAVEWESNGQPENNYKTTPPVLDSDGSFFLVSKLTVDKSRWQQGNVFSCSVMHEALHNRFTQKSLSLSPGK
chain 3: DIQLTQSPSTLSASVGDRVTITCRASESLDNYGIRFLTWFQQKPGKAPKLLMYAASNQGSGVPSRFSGSGSGTEFTLTISSLQPDDFATYYCQQTKEVPWSFGQGTKVEVKRTVAAPSVFIFPPSDEQLKSGTASVVCLLNNFYPREAKVQWKVDNALQSGNSQESVTEQDSKDSTYSLSSTLTLSKADYEKHKVYACEVTHQGLSSPVTKSFNRGEC

Kd (recombinant CD3 proteins [4]): 21.7 nM
koff (recombinant CD3 proteins [4]): 0.00688 s⁻¹
kon (recombinant CD3 proteins [4]): 317000 M⁻¹ s⁻¹
B3: CD3 × CD33-BspAb119 (bispecific antibody)
chain 1: NFMLTQPHSVSESPGKTVTISCTRSSGSIASNYVQWYQQRPGSSPTTVIYEDNQRPSGVPDRFSGSIDSSSNSASLTISGLKTEDEADYYCQSYDSSNRVFGCGTKLTVLGGGGSGGGGSGGGGSGGGGSEVQVAESGGGLVKPGGSLRLSCAASGFTFSRYSMNWVRQAPGKCLEWVSSISSSGSYTYYADSVKGRFTISRDNAKNSLYLQMNSLRAEDTAVYYCVRERGKGAGMDVWGQGTTVTVSSDKTHTCPPCPAPEFEGGPSVFLFPPKPKDTLMISRTPEVTCVVVDVSHEDPEVKFNWYVDGVEVHNAKTKPREEQYNSTYRVVSVLTVLHQDWLNGKEYKCKVSNKALPASIEKTISKAKGQPREPQVYTLPPCREEMTKNQVSLWCLVKGFYPSDIAVEWESNGQPENNYKTTPPVLDSDGSFFLYSKLTVDKSRWQQGNVFSCSVMHEALHNHYTQKSLSLSPGK
chain 2: EVQLVQSGAEVKKPGSSVKVSCKASGYTITDSNIHWVRQAPGQSLEWIGYIYPYNGGTDYNQKFKNRATLTVDNPTNTAYMELSSLRSEDTAFYYCVNGNPWLAYWGQGTLVTVSSASTKGPSVFPLAPSSKSTSGGTAALGCLVKDYFPEPVTVSWNSGALTSGVHTFPAVLQSSGLYSLSSVVTVPSSSLGTQTYICNVNHKPSNTKVDKRVEPKSCDKTHTCPPCPAPEFEGGPSVFLFPPKPKDTLMISRTPEVTCVVVDVSHEDPEVKFNWYVDGVEVHNAKTKPREEQYNSTYRVVSVLTVLHQDWLNGKEYKCKVSNKALPASIEKTISKAKGQPREPQVCTLPPSREEMTKNQVSLSCAVKGFYPSDIAVEWESNGQPENNYKTTPPVLDSDGSFFLVSKLTVDKSRWQQGNVFSCSVMHEALHNRFTQKSLSLSPGK
chain 3: DIQLTQSPSTLSASVGDRVTITCRASESLDNYGIRFLTWFQQKPGKAPKLLMYAASNQGSGVPSRFSGSGSGTEFTLTISSLQPDDFATYYCQQTKEVPWSFGQGTKVEVKRTVAAPSVFIFPPSDEQLKSGTASVVCLLNNFYPREAKVQWKVDNALQSGNSQESVTEQDSKDSTYSLSSTLTLSKADYEKHKVYACEVTHQGLSSPVTKSFNRGEC

Kd (recombinant CD3 proteins [5]): 1.91 nM
koff (recombinant CD3 proteins [5]): 0.000767 s⁻¹
kon (recombinant CD3 proteins [5]): 403000 M⁻¹ s⁻¹
B4: CD3 × CD33-BspAb118 (bispecific antibody)
chain 1: FMLTQPHSVSESPGKTVTISCTRSSGSIASNYVQWYQQRPGSSPTTVIYEDNQRPSGVPDRFSGSIDSSSNSASLTISGLQTEDEADYYCQSYDSSNRVFGCGTKLTVLGGGGSGGGGSGGGGSGGGGSEVQLVESGGGLVKPGGSLRLSCVASGFTFSRYSMNWVRQAPGKCLEWVSSISSSSRYTYYADSLKGRFIMSRDNAKNSLFLQMNSLRAEDTAVYYCARNLYNALDYWGQGTLVTVSSDKTHTCPPCPAPEFEGGPSVFLFPPKPKDTLMISRTPEVTCVVVDVSHEDPEVKFNWYVDGVEVHNAKTKPREEQYNSTYRVVSVLTVLHQDWLNGKEYKCKVSNKALPASIEKTISKAKGQPREPQVYTLPPCREEMTKNQVSLWCLVKGFYPSDIAVEWESNGQPENNYKTTPPVLDSDGSFFLYSKLTVDKSRWQQGNVFSCSVMHEALHNHYTQKSLSLSPGK
chain 2: EVQLVQSGAEVKKPGSSVKVSCKASGYTITDSNIHWVRQAPGQSLEWIGYIYPYNGGTDYNQKFKNRATLTVDNPTNTAYMELSSLRSEDTAFYYCVNGNPWLAYWGQGTLVTVSSASTKGPSVFPLAPSSKSTSGGTAALGCLVKDYFPEPVTVSWNSGALTSGVHTFPAVLQSSGLYSLSSVVTVPSSSLGTQTYICNVNHKPSNTKVDKRVEPKSCDKTHTCPPCPAPEFEGGPSVFLFPPKPKDTLMISRTPEVTCVVVDVSHEDPEVKFNWYVDGVEVHNAKTKPREEQYNSTYRVVSVLTVLHQDWLNGKEYKCKVSNKALPASIEKTISKAKGQPREPQVCTLPPSREEMTKNQVSLSCAVKGFYPSDIAVEWESNGQPENNYKTTPPVLDSDGSFFLVSKLTVDKSRWQQGNVFSCSVMHEALHNRFTQKSLSLSPGK
chain 3: DIQLTQSPSTLSASVGDRVTITCRASESLDNYGIRFLTWFQQKPGKAPKLLMYAASNQGSGVPSRFSGSGSGTEFTLTISSLQPDDFATYYCQQTKEVPWSFGQGTKVEVKRTVAAPSVFIFPPSDEQLKSGTASVVCLLNNFYPREAKVQWKVDNALQSGNSQESVTEQDSKDSTYSLSSTLTLSKADYEKHKVYACEVTHQGLSSPVTKSFNRGEC

Kd (recombinant CD3 proteins [6]): 69 nM
koff (recombinant CD3 proteins [6]): 0.0189 s⁻¹
kon (recombinant CD3 proteins [6]): 274000 M⁻¹ s⁻¹
B5: CD3 × CD33-BspAb120 (bispecific antibody)
chain 1: NFMLTQPHSVSESPGKTVAISCTRSSGSIASNYVQWYQQRPGSSPTAVIYEDNQRPSGVPDRFSGSIDSSSNSAFLTISGLKTEDEADYYCQSYDSSNRVFGCGTKLTVLGGGGSGGGGSGGGGSGGGGSEVQLVESGGGLVKPGGSLRLSCAASGFTFSSYSMNWVRQAPGKCLEWVSSISRSSGYIFYADSVKGRFTISRDNAKNSLYLQMNSLRAEDTAVYYCVRERVGAGFDYWGQGTLVTVSSDKTHTCPPCPAPEFEGGPSVFLFPPKPKDTLMISRTPEVTCVVVDVSHEDPEVKFNWYVDGVEVHNAKTKPREEQYNSTYRVVSVLTVLHQDWLNGKEYKCKVSNKALPASIEKTISKAKGQPREPQVYTLPPCREEMTKNQVSLWCLVKGFYPSDIAVEWESNGQPENNYKTTPPVLDSDGSFFLYSKLTVDKSRWQQGNVFSCSVMHEALHNHYTQKSLSLSPGK
chain 2: EVQLVQSGAEVKKPGSSVKVSCKASGYTITDSNIHWVRQAPGQSLEWIGYIYPYNGGTDYNQKFKNRATLTVDNPTNTAYMELSSLRSEDTAFYYCVNGNPWLAYWGQGTLVTVSSASTKGPSVFPLAPSSKSTSGGTAALGCLVKDYFPEPVTVSWNSGALTSGVHTFPAVLQSSGLYSLSSVVTVPSSSLGTQTYICNVNHKPSNTKVDKRVEPKSCDKTHTCPPCPAPEFEGGPSVFLFPPKPKDTLMISRTPEVTCVVVDVSHEDPEVKFNWYVDGVEVHNAKTKPREEQYNSTYRVVSVLTVLHQDWLNGKEYKCKVSNKALPASIEKTISKAKGQPREPQVCTLPPSREEMTKNQVSLSCAVKGFYPSDIAVEWESNGQPENNYKTTPPVLDSDGSFFLVSKLTVDKSRWQQGNVFSCSVMHEALHNRFTQKSLSLSPGK
chain 3: DIQLTQSPSTLSASVGDRVTITCRASESLDNYGIRFLTWFQQKPGKAPKLLMYAASNQGSGVPSRFSGSGSGTEFTLTISSLQPDDFATYYCQQTKEVPWSFGQGTKVEVKRTVAAPSVFIFPPSDEQLKSGTASVVCLLNNFYPREAKVQWKVDNALQSGNSQESVTEQDSKDSTYSLSSTLTLSKADYEKHKVYACEVTHQGLSSPVTKSFNRGEC
